Results: patent US20230227537A1 (VIB VZW, published 2023)

Assays:
[1] = molecular target: SARS-CoV-2 spike, full length, on cells or on pseudotyped/authentic virus (SARS-CoV-2, UniProt P0DTC2 14-1273); test: cell-based or functional assay
[2] = molecular target: Mouse IgG1 Fc fused SARS-CoV-2 RBD (Sino Biological) (SARS-CoV-2; mouse, UniProt P0DTC2 330-518); test: BLI, immobilized RBD-mFc

B1: D72-55: VHH72_h1_E1D_S56A-(G4S)3-VHH72_h3_S56A-GS-hIgG1hinge_EPKSCdel-hIgG1Fc_LALAPG_Kdel (Fc fusion)
chain: DVQLVESGGGLVQPGGSLRLSCAASGRTFSEYAMGWFRQAPGKEREFVATISWSGGATYYTDSVKGRFTISRDNAKNTVYLQMNSLRPEDTAVYYCAAAGLGTVVSEWDYDYDYWGQGTLVTVSSGGGGSGGGGSGGGGSDVQLVESGGGLVQPGGSLRLSCAASGRTFSEYAMGWFRQAPGKEREFVATISWSGGATYYTDSVKGRFTISRDNAKNTVYLQMNSLRPEDTAVYYCAAAGLGTVVSEWDYDYDYWGQGTLVTVSSGSDKTHTCPPCPAPEAAGGPSVFLFPPKPKDTLMISRTPEVTCVVVDVSHEDPEVKFNWYVDGVEVHNAKTKPREEQYNSTYRVVSVLTVLHQDWLNGKEYKCKVSNKALGAPIEKTISKAKGQPREPQVYTLPPSRDELTKNQVSLTCLVKGFYPSDIAVEWESNGQPENNYKTTPPVLDSDGSFFLYSKLTVDKSRWQQGNVFSCSVMHEALHNHYTQKSLSLSPG
notes: Tetravalent; ExpiCHO
B1 was tested, and the “PRNT50, authentic SARS-CoV-2” value [1] was 0.02 µg/mL, the “fold lower PRNT50 than the parental construct” value [1] was 50 fold and the “fold higher affinity than its bivalent counterpart” value [2] was over 100 fold.
